Assay results: patent US20250051413A1 (ASKGENE PHARMA, published 2025)

Biological target: human IL-12 receptor (b1 and b2 chain) (human, UniProt P42701 24-662; Q99665 24-862)
Assay: cell-based or functional assay

Sequence of human IL-12 receptor (b1 and b2 chain) (Q99665 24-862, chain 2 of 2, other chains not shown): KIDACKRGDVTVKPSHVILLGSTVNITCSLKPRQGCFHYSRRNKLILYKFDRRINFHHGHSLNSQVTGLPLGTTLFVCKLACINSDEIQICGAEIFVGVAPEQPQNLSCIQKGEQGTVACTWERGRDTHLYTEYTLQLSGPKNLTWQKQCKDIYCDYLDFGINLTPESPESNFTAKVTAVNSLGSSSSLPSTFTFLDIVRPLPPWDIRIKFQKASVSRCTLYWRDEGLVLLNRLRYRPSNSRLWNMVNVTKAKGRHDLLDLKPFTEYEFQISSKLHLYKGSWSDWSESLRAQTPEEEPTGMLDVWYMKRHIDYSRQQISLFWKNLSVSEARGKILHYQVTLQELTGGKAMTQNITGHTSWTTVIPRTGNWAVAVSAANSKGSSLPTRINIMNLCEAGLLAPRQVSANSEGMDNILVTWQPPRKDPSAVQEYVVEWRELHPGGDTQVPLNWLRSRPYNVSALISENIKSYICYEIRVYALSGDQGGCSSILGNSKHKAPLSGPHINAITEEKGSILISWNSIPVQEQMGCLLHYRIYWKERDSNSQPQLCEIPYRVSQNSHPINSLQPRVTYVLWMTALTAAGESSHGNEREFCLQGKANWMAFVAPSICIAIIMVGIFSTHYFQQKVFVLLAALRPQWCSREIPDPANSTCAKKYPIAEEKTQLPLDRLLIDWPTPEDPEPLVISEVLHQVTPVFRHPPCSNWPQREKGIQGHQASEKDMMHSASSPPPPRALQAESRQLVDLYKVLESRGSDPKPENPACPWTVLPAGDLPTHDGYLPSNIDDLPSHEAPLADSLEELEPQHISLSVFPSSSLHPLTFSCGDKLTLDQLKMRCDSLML

B1: ASKG129C (Fc fusion)
chain 1: QVQLVQSGVEVKKPGASVKVSCKASGYTFTNYYMYWVRQAPGQGLEWMGGINPSNGGTNFNEKFKNRVTLTTDSSTTTAYMELKSLQFDDTAVYYCARRDYRFDMGFDYWGQGTTVTVSSASTKGPSVFPLAPSSKSTSGGTAALGCLVKDYFPEPVTVSWNSGALTSGVHTFPAVLQSSGLYSLSSVVTVPSSSLGTQTYICNVNHKPSNTKVDKKAEPKSCDKTHTCPPCPAPEAAGAPSVFLFPPKPKDTLYITREPEVTCVVVDVSHEDPEVKFNWYVDGVEVHNAKTKPREEQYNSTYRVVSVLTVLHQDWLNGKEYKCKVSNKALPAPIEKTISKAKGQPREPQVYTLPPSREEMTKNQVSLTCLVKGFYPSDIAVEWESNGQPENNYKTTPPVLDSDGSFFLYSKLTVDKSRWQQGNVFSCSVMHEALHNHYTQKSLSLSPGGGGSGGGGSAAGGGGSGGGGSDIQMTQSPSSLSASVGDRVTITCRASQGISSWLAWYQQKPEKAPKSLIYAASSLQSGVPSRFSGSGSGTDFTLTISSLQPEDFATYYCQQYNIYPYTFGQGTKLEIKSGGGGSGGGGSGGGGSEVQLVQSGAEVKKPGESLKISCKGSGYSFTTYWLGWVRQMPGKGLDWIGIMSPVDSDIRYSPSFQGQVTMSVDKSITTAYLQWNSLKASDTAMYYCARRRPGQGYFDFWGQGTLVTVSS
chain 2: EVQLVESGGGLVQPGGSLRLSCAASGYTVSSYCMGWFRQAPGKGREGVSAIDSDGSVSYADSVKGRFTISKDNSKNTLYLQMNSLRAEDTAVYFCAADLCWVDQDQGEYNTWGQGTLVTVSSGSEPKSSDKTHTCPPCPAPEAAGGPSVFLFPPKPKDTLYITREPEVTCVVVDVSHEDPEVKFNWYVDGVEVHNAKTKPREEQYNSTYRVVSVLTVLHQDWLNGKEYKCKVSNKALPAPIEKTISKAKGQPREPQVYTLPPSREEMTKNQVSLTCLVKGFYPSDIAVEWESNGQPENNYKTTPPVLDSDGSFFLYSKLTVDKSRWQQGNVFSCSVMHEALHNHYTQKSLSLSPGGGGSGGGGSAAGGGGSGGGGSDIQMTQSPSSLSASVGDRVTITCRASQGISSWLAWYQQKPEKAPKSLIYAASSLQSGVPSRFSGSGSGTDFTLTISSLQPEDFATYYCQQYNIYPYTFGQGTKLEIKSGGGGSGGGGSGGGGSEVQLVQSGAEVKKPGESLKISCKGSGYSFTTYWLGWVRQMPGKGLDWIGIMSPVDSDIRYSPSFQGQVTMSVDKSITTAYLQWNSLKASDTAMYYCARRRPGQGYFDFWGQGTLVTVSS
- EC50 of p-STAT4 induction in human PBMC, CD4+ T cells: 2.52 nM
- EC50 of p-STAT4 induction in human PBMC, CD8+ T cells: 2.09 nM
- EC50 of p-STAT4 induction in human PBMC, NK cells: 3.75 nM
- fold decrease in cytokine releasing assay with human PBMC, activity relative to IL-12: ~1000 times
